# B1: C788L1F5 (Fc fusion)
# chain: HSQGTFTSDYSKQMDSQRAQDFVQWLMNTKRNRNNIAGGGGSERKCCVECPPCPAPPVAGPSVFLFPPKPKDTLMISRTPEVTCVVVDVSHEDPEVQFNWYVDGVEVHNAKTKPREEQFNSTFRVVSVLTVVHQDWLNGKEYKCKVSNKGLPSSIEKTISKTKGQPREPQVYTLPPSREEMTKNQVSLTCLVKGFYPSDIAVEWESNGQPENNYKTTPPMLDSDGSFFLYSKLTVDKSRWQQGNVFSCSVMHEALHNHYTQKSLSLSPG
# B2: C627L13F10 (Fc fusion)
# chain: HSQGTFTSDYSKQMDSQRAQDFVQWLMNGGPSSGAPPPSGGGGAGGGGAGGGGAAESKYGPPCPPCPAPEAAGGPSVFLFPPKPKDTLMISRTPEVTCVVVDVSQEDPEVQFNWYVDGVEVHNAKTKPREEQFASTYRVVSVLTVLHQDWLNGKEYKCKVSNKGLPSSIEKTISKAKGQPREPQVYTLPPSQEEMTKNQVSLTCLVKGFYPSDIAVEWESNGQPENNYKTTPPVLDSDGSFFLYSRLTVDKSRWQEGNVFSCSVMHEALHNHYTQKSLSLSLG
# Key:
# human GLP-1 receptor = human GLP-1 receptor (human, UniProt P43220 24-463); assay: cell-based or functional assay
# Glucagon receptor = assay: cell-based or functional assay
binder,measurement,setting,value
B1,GLP-1R agonist activity EC50 (luciferase reporter),human GLP-1 receptor,18.5 nM
same,GCGR agonist activity EC50 (luciferase reporter),Glucagon receptor,26.7 nM
B2,GLP-1R agonist activity EC50 (luciferase reporter),human GLP-1 receptor,1.41 nM
same,GCGR agonist activity EC50 (luciferase reporter),Glucagon receptor,1.27 nM
